The nanobody polyreactivity screen of Harvey et al. (2022)

Assay: yeast display, Sf9 membrane polyspecificity reagent, FACS + sequencing; frameworks hold sequencing errors
In short: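 In a synthetic yeast display library (Saccharomyces cerevisiae BJ5465), nanobody expression was induced with galactose for 36–48 hours. FACS gates were set low and high (top ~1%) using anti-HA fluorescence for expression and streptavidin fluorescence for binding of the Sf9 membrane reagent. Each polyreactivity label is drawn from the gate of origin.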

Sequence	polyreactivity (PSR sort gate)
QVQLVESGGGLVQAGGSLRLSCAASGSTFQYYAMGGYRQAPGKERELVAGITWRDGNTYYADTVKGRFTISRDNANNTVYLQMNSLKPEDTAVYYCAARRYFVIYYPYDYWGQGTQVTVSS	low polyreactivity
QVQLVESGGGLVQAGGSLRLSCAASGSTFQYYAMGWYRQAPGKDRELVAAIRTGGSTNYAHSVKGRFTISRDNAKNTVYLQMNSLKPDDNAVYYCAKRSLRSYRMNYWGQGTQVTVSS	high polyreactivity
QVQLVESGGGLVQAGGSLRLSCAASGSTFQYYAMGWYRQAPGKERELVAAISYSSGTTYYADSVKGRFTISRDNAKNTVYLQMNSLKPEDTAVYYCARPARYSYPTSTAFDYWGQGTQVTVSS	low polyreactivity
QVQLVESGGGLVQAGGSLRLSCAASGSTFQYYTMGWYRQAPGKERELVAAITRSGGRTYYADSVKGRFTISRDNAKNTVYLQMNSLKPEDTAVYYCAALDSRYSGDDYDSWGQGTQVTVSS	high polyreactivity
QVQLVESGGGLVQAGGSLRLSCAASGSTFRANAMGRYRQAPGKERELVAAINSGGSTYYADSVKGRFTISRDNAKNTVYLQMNSLKPEDTAVYYCNKRYWRSDYWGQGTQVTVSS	high polyreactivity
QVQLVESGGGLVQAGGSLRLSCAASGSTFRANAMGWYRQAPGKESELVADIRFSDGSTYYADSVKGRFTISRDNAKNTVYLQMNSLKPEDTAVYYCAARPSGRGYYLLGYWGQGTQVTVSS	low polyreactivity
QVQLVESGGGLVQAGGSLRLSCAASGSTFRANVMGWYRQAPGKEMELVAAITSGGGSTYYADSVKGRFTISRDNAKNTVYLQMNSLKPEDTAVYYCATRPIQYRRGYDYWGQGTQVTVSS	high polyreactivity
QVQLVESGGGLVQAGGSLRLSCAASGSTFRAYAMGWYRQAPGKEREFVASISWSGGRTYYADSVKGRFTISRDNAKNTVYLQMNSLKPEDTAVYYCAVDLSTHDYDYWGQGTQVTVSS	low polyreactivity
QVQLVESGGGLVQAGGSLRLSCAASGSTFRAYAMGWYRQAPGKERELVAAISRSGGSTYYADSVKGRFTISRDNAKNTVYLQMNSLKPEDTAVYYCNAAYKNYQYRPPNIDGQGDYWGQGTQVTVSS	high polyreactivity
QVQLVESGGGLVQAGGSLRLSCAASGSTFRAYAMRWYRQAPGKETELVAAISSSGGSTYYADSVKGRFTISRDNAKKTVYLQMNSLKPEDTAVYYCAARGWWSRYGYWGQGTQVTVSS	high polyreactivity
QVQLVESGGGLVQAGGSLRLSCAASGSTFRCYAMGWYRQAPGKERELVAAISRSGGSTYYADSVKGRFTISRDNAKNTVYLQMNSLKPEDTAVYYCNARSSKRSSRGYDYWGQGTQVTVSS	high polyreactivity
QVQLVESGGGLVQAGGSLRLSCAASGSTFRDNSMGWYRQAPGKERELVASITKRGTSTYYADSVKGRFTISRDNAKNNVYLHMNSLKPEETSVYYCAVRRYGKTAGYDYWGQGTQVTVSS	low polyreactivity
QVQLVESGGGLVQAGGSLRLSCAASGSTFREYAMGWYRQAPGKERELVAAISSGDSTNYADSVKGRFTISRDNAKNTVYLQMNSLKPEDTAVYYCAADAPGAAAVQNDYWGQGTQVTVSS	low polyreactivity
QVQLVESGGGLVQAGGSLRLSCAASGSTFRFNAMGWYRQAPGKERELVAAITGIGGITYYADSVKGRFTISRDNAKNTVYLQMNSLKPEDTAVYYCNAVAARYSVRNGYSTHYDYWGQGTQVTVSS	high polyreactivity
QVQLVESGGGLVQAGGSLRLSCAASGSTFRFNTMGWYRHAPGKDRELVAAITSGGSTYYADSVKGLFTISRDNAKNTVYLQMNSLKPEDTAVYYCAATWYIRGQCYYYWGQGTQVTVSS	high polyreactivity
QVQLVESGGGLVQAGGSLRLSCAASGSTFRFYAMGWYRPAPGKERELVAVIRSTGSTYYADSVKGRFTISRDNAKNTVYLQMNSLKPEDTAVYYCAAQNAWWSNGRSYDYWGQGTQVTVSS	low polyreactivity
QVQLVESGGGLVQAGGSLRLSCAASGSTFRFYAMGWYRQAPGKERELVAAISKSGGITYYADSVKGRFTISRAHAKNTVYLQMNSLKPEDTSVSYCATVGLLSNFYSRFNYWGQGTPVTVSS	high polyreactivity
QVQLVESGGGLVQAGGSLRLSCAASGSTFRFYAMGWYRQAPGKERELVAAITRSGGGTTYYADSVKGRFTISRDNAKNTVYLQMNSLKPEDTAVYYCAAYLSSLGRKYYYWGQGTQVTVSS	high polyreactivity
QVQLVESGGGLVQAGGSLRLSCAASGSTFRGNDMGWYRQAPGKERELVASIDWSGGSTYYADSVKGRFTISRDNAKNTVYLQMNSLKPEDTAVYYCAADTSYWYDYYIDYVGYYYWGQGTQVTVSS	high polyreactivity
QVQLVESGGGLVQAGGSLRLSCAASGSTFRGNTMGWYRQAPGKERELVAAISRRGGGTYYADSVKGRFTISRDNAKNTVYLQMNSLKPEDTAVYYCNKRARHTGDFVWGHGYWGQGTQVTVSS	low polyreactivity
QVQLVESGGGLVQAGGSLRLSCAASGSTFRGYAMGWYRLAPGKEREFVASISLSGGSTYYADSVKGRFTISRDNAKNTVDSQMNSRKPEDTAVYDGAARARGYGWRGDYWGQGTHVTVSS	low polyreactivity
QVQLVESGGGLVQAGGSLRLSCAASGSTFRGYAMGWYRQAPGKERDLVAAMSSNGDRTFYADSVKGRFTISRDNAKNTVYLQMNSLKPEDTAVYYCNAVYRGSWQLYGYWGLGTQVTVSS	high polyreactivity

Sequence	polyreactivity (PSR sort gate)
QVQLVESGGGLVQAGGSLRLSCAASGSTFRHNAMGWYRDAPGTERELVATIRTSGGTTYYADSVKGRFTISRDNAKNTVYLQMNSLKPEDTAVYYCAAKYSLLRQYNRLDYWGQGTQVTVSS	low polyreactivity
QVQLVESGGGLVQAGGSLRLSCAASGSTFRHNAMGWYRQAPGKERELVATIRTSGGTTYYADSVKGRFTISRDNAKNTVYLQMNSLKQEDTAVYYCAAVSYLFLYQGYPIAYPMYYWGQGSQVTVSS	low polyreactivity
QVQLVESGGGLVQAGGSLRLSCAASGSTFRHYAMGWYRQAPGKESELVAAISSTGGSTHNADSVKGRFTISRDNAKNTVFLQLHSLKPEDTAVDYCAARRLYWGQGTQVTVSS	high polyreactivity
QVQLVESGGGLVQAGGSLRLSCAASGSTFRINAMGWYRQAPGKERELVAAITSGGSTKYADSVKGRFTISRDNAKNTVYLQMNSLKPEDTAVYYCNKQGYPYRYFAWYPGYNYWGQGTQVTVSS	low polyreactivity
QVQLVESGGGLVQAGGSLRLSCAASGSTFRIYAKGWYRQAPGKERELVAAITRGARTNYADSVKGRFTISRDNAKNTVYLQMNSLKPEDTAVYYCAADGWRWYQHNGFDYWVQGTQVTVSS	high polyreactivity
QVQLVESGGGLVQAGGSLRLSCAASGSTFRKYAMGWYRQAPGKEREFVAAITWSTGTTYYADSVKGRFTISRDNAKNTVYLQMNSLKPEDTAVYYCNAAFWAPQAPCYYYWGQGTQVTVSS	low polyreactivity
QVQLVESGGGLVQAGGSLRLSCAASGSTFRLNAMGRYRQAPGKERELVAAISRSTGTTHYADSVKGRFTISRDNAKNTVYLQMKSLKPEDTAVYYCATDRAKWHKNGDLGYWGQGTQVTVSS	low polyreactivity
QVQLVESGGGLVQAGGSLRLSCAASGSTFRLYAMGWYRQAPGKERELVAAIRSGGNTNYADSVKGRFTISRDNAKNTVYLQMNSLKPEDTAVYYCAATYGTGRRSKYGYWGQGTQVTVSS	high polyreactivity
QVQLVESGGGLVQAGGSLRLSCAASGSTFRNNAMGWYRQAPGKETELVAAISFSSGRTYYADSVKGRFTISRDYAKNTVYLQMNSLKPEDTAVYYCAALQYRRRPYGAVERYDYWGQGTQVTVSS	high polyreactivity
QVQLVESGGGLVQAGGSLRLSCAASGSTFRPNAMGWYRQAPGKERELVAAISRSGVSTYYADSVKGRFTISRDNAKNTVYLQMNSLKPEDTAVYYCARRYTGRPVLRESWGQGTQVTVSS	low polyreactivity
QVQLVESGGGLVQAGGSLRLSCAASGSTFRPYAMGWYRQAPGTERELVAAISWSGGRTYYADSVKGRFTISRDNAKNNVYLQMNSLKPEDTAVYYCTRAGRQPKNTYDYWGQGTQVTVSS	high polyreactivity
QVQLVESGGGLVQAGGSLRLSCAASGSTFRQNALGWYRQAPGKERELVAAITYRVASTYYADSVKGRFTISRDNAKNTVYLQMNSLKPEDTAVYYCAAYKRRSNGRYWTYDYWGQGTQVTVSS	high polyreactivity
QVQLVESGGGLVQAGGSLRLSCAASGSTFRRNAMGWYRQAPGKERELVAAISRTAGSTYYADSVKGRFTISRDNAKNTVYLQMNSLKPEDTAVYYCNRRYVSTSGELDYWGQGTQVTVSS	high polyreactivity
QVQLVESGGGLVQAGGSLRLSCAASGSTFRRNVMGWYRQAPGKEREFVAAISYRTGSTYYADSVKGRFTISRDNAKNTVYLQMNSLKPEDTAVYYCAASSQWVGYYYWGQGTQVTVSS	high polyreactivity
QVQLVESGGGLVQAGGSLRLSCAASGSTFRRYAMGWSRQAPGKVRELVAAISRTGRTNYADSVKGRFTISRDNAKYTVYLQMNSLKPEDTAFDYCAAKSSTKQRKYYWGQGTQVTVSS	high polyreactivity
QVQLVESGGGLVQAGGSLRLSCAASGSTFRRYAMGWYRQAPGKERELVAAITSGGRTNYADSVKGRFTISRDNAKNTVYLQMNSLKPEDTAVYYCAARYIRGSYGMGYWGQGTQVTVSS	high polyreactivity
QVQLVESGGGLVQAGGSLRLSCAASGSTFRRYAMGWYRQAPGKERELVAGITSGGDTYYADSVKGRFTISRDNAKNTVYLQMNSLKPEDTALYYCARVRYGRMDYWGQGTQVTVSS	high polyreactivity
QVQLVESGGGLVQAGGSLRLSCAASGSTFRRYAMGWYRQAPGKERELVASISRSGGSTYYADSVKGRFTISRDNAKNTVYLQMNSLKPEDTAVYYCAKKPYKSAYDYSSAYDYWGQGTQVTVSS	high polyreactivity
QVQLVESGGGLVQAGGSLRLSCAASGSTFRRYAMGWYRQAPGKERELVASITYRGGSTYYADSVKGRFTISRDNAKNTVYLQMNSLKPEDTAVYYCAKKGVYGPLNEYWGQGTQVTVSS	high polyreactivity
QVQLVESGGGLVQAGGSLRLSCAASGSTFRRYAMGWYRQAPVKERELVAAITRGGITYYADSVKGRFTISRDNAKNTVYLQMNSLKPEDTAVYYCAATTFGPYALYPRYYYWGQGTQVTVSS	high polyreactivity
QVQLVESGGGLVQAGGSLRLSCAASGSTFRSNAMGWYRQAPGKERELVAAIRYSGARTYYADSVKGRFTISRDNAKNTVYLQMNSLKPEDTAVYYCAATLYTRTYSWMDYWGQGTQVTVSS	high polyreactivity
